Test results reported in the supplement of paper PMC10724198.
± gives the standard deviation of the averaged measurements.

Columns and labels:
[1] = system: Saccharomyces cerevisiae; test: protein stability index of tFT-peptide fusion (C-terminal peptide) (PSI (0-1 scale)); higher = more stable (slower turnover); settings: genetic background: wild type; temperature: 30 C
[2] = system: Saccharomyces cerevisiae; test: as above
Experimental: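 MPS profiling in S. cerevisiae of the tFT-X12 degron library: putative degron peptides plus stable controls, 12 aa, fused to the C-terminus of a sfGFP-mCherry timer. Cells are FACS-sorted into 8 mCherry/sfGFP bins and deep-sequenced. PSI runs from 0 (unstable) to 1 (stable). Backgrounds are wild type, das1Δ and doa10Δ at 30 °C, and wild type, das1Δ, cdc34-1 and cdc53-1 at 37 °C; 2-3 technical replicates each.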

[3] = genetic background: cdc34-1, temperature: 37 C
[4] = genetic background: cdc53-1, temperature: 37 C
[5] = genetic background: das1 deletion, temperature: 30 C
[6] = genetic background: das1 deletion, temperature: 37 C
[7] = genetic background: doa10 deletion, temperature: 30 C
[8] = genetic background: wild type, temperature: 30 C
[9] = genetic background: wild type, temperature: 37 C
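Further: PSI is a weighted mean of sequencing reads over stability bins, variants kept only with over 10 reads, mCherry proximal and sfGFP distal, peptide attached via GGGS linker.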

Sequence	protein stability index [1]	protein stability index [2, 3]	protein stability index [2, 4]	protein stability index [2, 5]	protein stability index [2, 6]	protein stability index [2, 7]	protein stability index [2, 8]	protein stability index [2, 9]
LRMSLLVFLLFA	0.314 ± 0.054	0.312 ± 0.03	0.407 ± 0.033	0.261 ± 0.033	0.4419 ± 0.0016	0.249 ± 0.021	0.231 ± 0.025	0.399 ± 0.0072
LRQKIIYWWLWL	0.313 ± 0.0047	0.478 ± 0.019	0.488 ± 0.021	0.472 ± 0.03	0.613 ± 0.008	0.255 ± 0.011	0.245 ± 0.011	0.3523 ± 0.001
LRVLSVVRLSVW	0.468 ± 0.055	0.479 ± 0.0067	0.545 ± 0.023	0.407 ± 0.034	0.545 ± 0.011	0.382 ± 0.02	0.4 ± 0.025	0.54567 ± 0.00028
LSARVFCFWFFS	0.31 ± 0.024	0.586 ± 0.018	0.635 ± 0.011	0.549 ± 0.05	0.677 ± 0.028	0.187 ± 0.017	0.201 ± 0.011	0.2852 ± 0.0022
LSFLCFSTVLHC	0.503 ± 0.073	0.557 ± 0.0096	0.606 ± 0.019	0.511 ± 0.017	0.58 ± 0.019	0.46 ± 0.022	0.462 ± 0.03	0.54302 ± 0.00015
LSFLFFRLCSFF	0.203 ± 0.061	0.487 ± 0.066	0.551 ± 0.0081	0.568 ± 0.034	0.668 ± 0.021	0.157 ± 0.0029	0.158 ± 0.017	0.184 ± 0.04
LSLLCFVASVVA	0.275 ± 0.016	0.168 ± 0.0083	0.195 ± 0.005	0.238 ± 0.027	0.292 ± 0.015	0.1585 ± 0.00028	0.194 ± 0.021	0.224 ± 0.013
LSLVIFIFLYCR	0.227 ± 0.053	0.0945 ± 0.016	0.123 ± 0.037	0.179 ± 0.0092	0.234 ± 0.0042	0.27 ± 0.033	0.169 ± 0.023	0.205 ± 0.027
LSLWPIFGIIYC	0.4508 ± 0.0019	0.46 ± 0.035	0.4637 ± 0.0007	0.357 ± 0.024	0.516 ± 0.013	0.332 ± 0.011	0.364 ± 0.019	0.513 ± 0.019
LSPPPLSFPFSA	0.136 ± 0.021	0.704 ± 0.0072	0.753 ± 0.02	0.623 ± 0.012	0.737 ± 0.011	0.643 ± 0.017	0.666 ± 0.024	0.7118 ± 0.0069
LSVVVLVLCVLL	0.353 ± 0.033	0.285 ± 0.028	0.403 ± 0.02	0.279 ± 0.04	0.42 ± 0.027	0.268 ± 0.023	0.283 ± 0.023	0.428 ± 0.082
LVGYCGAWACVV	0.4 ± 0.036	0.642 ± 0.034	0.677 ± 0.021	0.558 ± 0.023	0.674 ± 0.018	0.244 ± 0.011	0.283 ± 0.027	0.501 ± 0.025
LVLCCGFWFRAV	0.381 ± 0.025	0.619 ± 0.046	0.606 ± 0.038	0.464 ± 0.031	0.612 ± 0.0063	0.27 ± 0.0049	0.286 ± 0.029	0.501 ± 0.02
LVLGVEVCFVLG	0.273 ± 0.015	0.102 ± 0.0073	0.16 ± 0.011	0.177 ± 0.033	0.296 ± 0.0065	0.147 ± 0.012	0.168 ± 0.032	0.246 ± 0.022
LVPYLWWLVFAL	0.274 ± 0.027	0.189 ± 0.015	0.125 ± 0.023	0.192 ± 0.028	0.319 ± 0.046	0.202 ± 0.011	0.143 ± 0.019	0.24 ± 0.026
LVVFGLVLSLLL	0.469 ± 0.025	0.449 ± 0.013	0.477 ± 0.006	0.376 ± 0.022	0.5066 ± 0.0043	0.356 ± 0.008	0.374 ± 0.022	0.495 ± 0.03
LVVWASLVRVEG	0.33 ± 0.032	0.271 ± 0.033	0.3235 ± 0.003	0.252 ± 0.037	0.4191 ± 0.0033	0.2034 ± 0.00022	0.255 ± 0.02	0.389 ± 0.0079
LVWDLFRCFSML	0.242 ± 0.026	0.582 ± 0.018	0.7165 ± 0.001	0.647 ± 0.032	0.759 ± 0.038	0.23 ± 0.0054	0.228 ± 0.021	0.351 ± 0.029
LVWSGLIVVVGG	0.3 ± 0.042	0.179 ± 0.024	0.204 ± 0.064	0.2 ± 0.03	0.318 ± 0.013	0.176 ± 0.033	0.195 ± 0.033	0.269 ± 0.012
LWAVGVATDWGG	0.734 ± 0.022	0.706 ± 0.018	0.7571 ± 0.0035	0.684 ± 0.029	0.768 ± 0.015	0.694 ± 0.021	0.689 ± 0.011	0.7513 ± 0.0075
LWERRSRQLTMF	0.263 ± 0.013	0.645 ± 0.056	0.7649 ± 0.003	0.687 ± 0.014	0.7401 ± 0.0057	0.173 ± 0.011	0.166 ± 0.018	0.33 ± 0.026
LWGLVGVCLVLC	0.169 ± 0.0084	0.0679 ± 0.011	0.0705 ± 0.004	0.176 ± 0.021	0.229 ± 0.0061	0.135 ± 0.0079	0.113 ± 0.016	0.134 ± 0.011
LWVMVLFFPGCS	0.463 ± 0.043	0.3714 ± 0.0026	0.493 ± 0.0033	0.307 ± 0.042	0.552 ± 0.024	0.299 ± 0.0056	0.326 ± 0.025	0.5361 ± 0.0032
LWVSHFVILIVS	0.213 ± 0.03	0.122 ± 0.032	0.105 ± 0.0073	0.135 ± 0.03	0.236 ± 0.0048	0.0934 ± 0.036	0.108 ± 0.026	0.16 ± 0.0095
LYRSLLLSFCVL	0.483 ± 0.0052	0.593 ± 0.023	0.6381 ± 0.00019	0.528 ± 0.011	0.639 ± 0.018	0.407 ± 0.031	0.411 ± 0.022	0.521 ± 0.012
LYSLRRNWLRTP	0.323 ± 0.04	0.637 ± 0.032	0.726 ± 0.016	0.672 ± 0.016	0.772 ± 0.0095	0.1676 ± 0.0011	0.21 ± 0.026	0.478 ± 0.019
MALAVRVVPCGA	0.397 ± 0.017	0.373 ± 0.012	0.385 ± 0.011	0.291 ± 0.028	0.4637 ± 0.0008	0.264 ± 0.011	0.287 ± 0.037	0.421 ± 0.0078
MALAVRVVSCGA	0.3657 ± 0.0028	0.294 ± 0.015	0.3333 ± 0.0024	0.265 ± 0.032	0.4146 ± 0.0036	0.2244 ± 0.00017	0.262 ± 0.016	0.3802 ± 0.0015
MCVCLLVRVVPS	0.297 ± 0.044	0.188 ± 0.0053	0.3241 ± 0.00049	0.211 ± 0.029	0.41 ± 0.01	0.175 ± 0.0074	0.194 ± 0.022	0.357 ± 0.0044
MGDFGFIFVFFL	0.502 ± 0.02	0.544 ± 0.007	0.606 ± 0.035	0.427 ± 0.027	0.6479 ± 0.0044	0.383 ± 0.0084	0.414 ± 0.008	0.59233 ± 0.00044
